Patent US6790646B2, “Mutants of monoamine oxidase B” (Research Development Foundation, priority 1998, dated 2004)

T1: MAO B (Homo sapiens, UniProt P27338, E427Q)
T1 construct: expressed in transfected cells; host or cells: COS-7
T1 sequence (P27338 2-520 E427Q): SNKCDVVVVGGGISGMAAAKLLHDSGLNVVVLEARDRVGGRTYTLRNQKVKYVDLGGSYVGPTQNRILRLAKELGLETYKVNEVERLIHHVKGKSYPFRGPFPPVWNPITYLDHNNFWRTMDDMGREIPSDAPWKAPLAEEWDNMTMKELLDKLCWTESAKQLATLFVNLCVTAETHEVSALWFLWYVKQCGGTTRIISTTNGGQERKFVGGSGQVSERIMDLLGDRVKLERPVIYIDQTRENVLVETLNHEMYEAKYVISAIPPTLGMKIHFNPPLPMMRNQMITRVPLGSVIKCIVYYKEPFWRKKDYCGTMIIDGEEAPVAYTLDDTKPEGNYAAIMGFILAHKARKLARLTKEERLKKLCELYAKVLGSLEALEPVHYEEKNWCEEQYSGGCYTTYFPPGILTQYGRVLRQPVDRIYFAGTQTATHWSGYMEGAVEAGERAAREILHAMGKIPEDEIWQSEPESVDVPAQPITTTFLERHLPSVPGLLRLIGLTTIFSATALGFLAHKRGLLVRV


Assays:
COS-7 cells = assay: Expression levels of wild-type or mutant MAO B in transfected COS-7 cells; conditions: transiently transfected COS-7 cells, triplicate, six experiments, mean + S.E.M., subunit molecular weight 58,800
Method: (§1) The wild-type and mutant MAO B enzymes were expressed in mammalian COS-7 cells, and the enzymatic properties of the native enzyme and its mutant enzymes were determined and compared. Wild-type and mutant MAO B cDNAs were transiently transfected into COS-7 cells by electroporation. Cells were harvested during late log phase growth and resuspended to a concentration of 3.125×10^6 cells/ml in DMEM supplemented with 10% fetal bovine serum (FBS). Fifteen μg of normal or mutant cDNA were added to 0.8 ml (2.5×10^6 cells) of cell suspension. Electroporation was carried out in a Bio-Rad Gene Pulser with a setting of 0.25 kV and 500 μF. Cells were resuspended in 15 ml of DMEM/FBS and incubated at 37° C. with 5% CO2 for 48 h.
(§2) Aliquots (20 μl) of transfected COS-7 cell homogenates were incubated for 10 min at 37° C. in the presence of various concentrations of [^14C]PEA (20 mCi/mmol) or [^14C]benzylamine (10 mCi/mmol) in 50 mM sodium phosphate buffer, pH 7.5 (200 μl total volume). Substrate concentrations ranged from 0.25-2.5 times the Km value (determined in pilot experiments) to yield 10 equally-spaced reciprocal increments. Parallel assays were carried out with untransfected COS-7 cell lysates as a control. Reactions were stopped by addition of 25 μl of 6 N HCl and the deaminated products were extracted by vortexing for 30 seconds with 500 μl of toluene or toluene:ethyl acetate (1:1) for benzylamine or PEA, respectively. Samples were processed as described previously (28). Apparent Km and Vmax values were determined by linear regression analysis of Lineweaver-Burk plots. Kcat values were calculated from the Vmax values divided by the concentration of wild-type or mutant MAO B determined in each experiment. Expression levels of wild-type or mutant MAO B were determined in triplicate for six separate experiments as follows: wild-type=11.1+2.07; F423A=9.30+1.89; E427Q=10.3+1.29; T428A=10.2+2.07; T428S=10.2+1.53 pmol MAO B/mg protein. Data are given as means +S.E.M. pmol/mg of protein determined using a subunit molecular weight of 58,800.

MAO B [1] = assay: Kinetic analysis of wild-type and mutant MAO B with [14C]benzylamine substrate (transfected COS-7 cell homogenates); format: biochemical, human; conditions: for Kcat / Km / Vmax: pH 7.5, 37° C., apparent, mean + S.E.M., n=3; for activity relative to wild-type: activity too low to determine kinetic parameters; for Kcat reduced by: versus wild-type
Method: as §1, §2

MAO B [2] = assay: Kinetic analysis of wild-type and mutant MAO B with [14C]PEA substrate (transfected COS-7 cell homogenates); format: biochemical, human; conditions: PEA substrate; for Kcat / Km / Vmax: pH 7.5, 37° C., apparent, mean + S.E.M., n=3; for activity relative to wild-type: activity too low to determine kinetic parameters
Method: as §1, §2

MAO B [3] = assay: pH profiles of wild-type and mutant MAO B enzymatic activity with [14C]benzylamine; format: biochemical, human; conditions: pH 6.0 to 9.0, 500 μM benzylamine
Method: (§3) Aliquots (20 μl) of transfected COS-7 cell homogenates were incubated for 10 min at 37° C. in the presence of 500 μM (^14C)benzylamine (2.5 mCi/mmol) in 50 mM sodium phosphate buffer, pH 6.0, 6.5, 7.0, 7.5, 8.0, 8.5 or 9.0 (200 μl total volume). Reactions were stopped by addition of 25 μl of 6 N HCl. Parallel assays were carried out with untransfected COS-7 homogenates as a control. Samples were processed as previously described (28) and the derived specific activity values (nmol/min·mg protein) were divided by wild-type or mutant MAO B concentration, determined for each experiment, to obtain enzymatic activity values (nmol/min·m g MAO B). Enzymatic activities were determined in duplicate for three separate experiments.
(§4) To examine the possibility that the mutation effects a proton-dependent step in the reaction, the enzymatic activity of the mutant and wild-type MAO B enzymes was determined at different pH values from 6.0 to 9.0 (FIG. 4).

MAO B [4] = target: T1, MAO B; assay: as above; format: biochemical; conditions: pH 6.0 to 9.0, 500 μM benzylamine
Method: as §3, §4

| activity relative to wild-type (MAO B [4]) | Molecule | Expression level (COS-7 cells) | Kcat (MAO B [1]) | Km (MAO B [1]) [µM] | Vmax (MAO B [1]) | Kcat (MAO B [2]) | Km (MAO B [2]) [µM] | Vmax (MAO B [2]) | pH profile of enzymatic activity (MAO B [3]) | activity relative to wild-type (MAO B [1]) | activity relative to wild-type (MAO B [1]; listed as E427Q) [% wt] | activity relative to wild-type (MAO B [2]) | activity relative to wild-type (MAO B [2]; listed as E427Q) [% wt] | Km compared with wild-type (MAO B [1]) | Kcat reduced by (MAO B [1]) [%] | Kcat relative to wild-type (reduction) (MAO B [2]) |
| --- | --- | --- | --- | --- | --- | --- | --- | --- | --- | --- | --- | --- | --- | --- | --- | --- |
|  | WT: wild-type human MAO B enzyme expressed from cDNA in pSVK3 in COS-7 cells (protein, UniProt P27338 2-520, looked up) Amine oxidase …: SNKCDVVVVGGGISGMAAAKLLHDSGLNVVVLEARDRVGGRTYTLRNQKVKYVDLGGSYVGPTQNRILRLAKELGLETYKVNEVERLIHHVKGKSYPFRGPFPPVWNPITYLDHNNFWRTMDDMGREIPSDAPWKAPLAEEWDNMTMKELLDKLCWTESAKQLATLFVNLCVTAETHEVSALWFLWYVKQCGGTTRIISTTNGGQERKFVGGSGQVSERIMDLLGDRVKLERPVIYIDQTRENVLVETLNHEMYEAKYVISAIPPTLGMKIHFNPPLPMMRNQMITRVPLGSVIKCIVYYKEPFWRKKDYCGTMIIDGEEAPVAYTLDDTKPEGNYAAIMGFILAHKARKLARLTKEERLKKLCELYAKVLGSLEALEPVHYEEKNWCEEQYSGGCYTTYFPPGILTQYGRVLRQPVDRIYFAGTETATHWSGYMEGAVEAGERAAREILHAMGKIPEDEIWQSEPESVDVPAQPITTTFLERHLPSVPGLLRLIGLTTIFSATALGFLAHKRGLLVRV | 11.1+2.07 pmol MAO B/mg protein | 83.0 + 14.4 min^−1 | 19.3 | 0.879 + 0.19 nmol/min · mg protein | 29.8 + 5.0 min^−1 | 3.38 | 0.325 + 0.008 nmol/min · mg protein | characteristic increase in activity with increasing pH |  |  |  |  |  |  |  |
| < 5 % of wild-type | E427 Q: human MAO B mutant, Glu427 changed to Gln (protein, UniProt P27338 2-520, looked up, variant E427Q) Amine oxidase …: SNKCDVVVVGGGISGMAAAKLLHDSGLNVVVLEARDRVGGRTYTLRNQKVKYVDLGGSYVGPTQNRILRLAKELGLETYKVNEVERLIHHVKGKSYPFRGPFPPVWNPITYLDHNNFWRTMDDMGREIPSDAPWKAPLAEEWDNMTMKELLDKLCWTESAKQLATLFVNLCVTAETHEVSALWFLWYVKQCGGTTRIISTTNGGQERKFVGGSGQVSERIMDLLGDRVKLERPVIYIDQTRENVLVETLNHEMYEAKYVISAIPPTLGMKIHFNPPLPMMRNQMITRVPLGSVIKCIVYYKEPFWRKKDYCGTMIIDGEEAPVAYTLDDTKPEGNYAAIMGFILAHKARKLARLTKEERLKKLCELYAKVLGSLEALEPVHYEEKNWCEEQYSGGCYTTYFPPGILTQYGRVLRQPVDRIYFAGTQTATHWSGYMEGAVEAGERAAREILHAMGKIPEDEIWQSEPESVDVPAQPITTTFLERHLPSVPGLLRLIGLTTIFSATALGFLAHKRGLLVRV | 10.3+1.29 pmol MAO B/mg protein |  |  |  |  |  |  | essentially independent of pH | (<5% wt) | < 5 | (<5% wt) | < 5 |  |  |  |
|  | T428 S: human MAO B mutant, Thr428 changed to Ser (protein, UniProt P27338 2-520, looked up, variant T428S) Amine oxidase …: SNKCDVVVVGGGISGMAAAKLLHDSGLNVVVLEARDRVGGRTYTLRNQKVKYVDLGGSYVGPTQNRILRLAKELGLETYKVNEVERLIHHVKGKSYPFRGPFPPVWNPITYLDHNNFWRTMDDMGREIPSDAPWKAPLAEEWDNMTMKELLDKLCWTESAKQLATLFVNLCVTAETHEVSALWFLWYVKQCGGTTRIISTTNGGQERKFVGGSGQVSERIMDLLGDRVKLERPVIYIDQTRENVLVETLNHEMYEAKYVISAIPPTLGMKIHFNPPLPMMRNQMITRVPLGSVIKCIVYYKEPFWRKKDYCGTMIIDGEEAPVAYTLDDTKPEGNYAAIMGFILAHKARKLARLTKEERLKKLCELYAKVLGSLEALEPVHYEEKNWCEEQYSGGCYTTYFPPGILTQYGRVLRQPVDRIYFAGTESATHWSGYMEGAVEAGERAAREILHAMGKIPEDEIWQSEPESVDVPAQPITTTFLERHLPSVPGLLRLIGLTTIFSATALGFLAHKRGLLVRV | 10.2+1.53 pmol MAO B/mg protein | 27.2 + 5.8 min^−1 | 5.4 | 0.236 + 0.05 nmol/min · mg protein | 14.5 + 2.0 min^−1 | 11.6 | 0.162 + 0.22 nmol/min · mg protein |  |  |  |  |  | approximately equal to wild-type | 67 | ~50 % of wild-type |
|  | T428 A: human MAO B mutant, Thr428 changed to Ala (protein, UniProt P27338 2-520, looked up, variant T428A) Amine oxidase …: SNKCDVVVVGGGISGMAAAKLLHDSGLNVVVLEARDRVGGRTYTLRNQKVKYVDLGGSYVGPTQNRILRLAKELGLETYKVNEVERLIHHVKGKSYPFRGPFPPVWNPITYLDHNNFWRTMDDMGREIPSDAPWKAPLAEEWDNMTMKELLDKLCWTESAKQLATLFVNLCVTAETHEVSALWFLWYVKQCGGTTRIISTTNGGQERKFVGGSGQVSERIMDLLGDRVKLERPVIYIDQTRENVLVETLNHEMYEAKYVISAIPPTLGMKIHFNPPLPMMRNQMITRVPLGSVIKCIVYYKEPFWRKKDYCGTMIIDGEEAPVAYTLDDTKPEGNYAAIMGFILAHKARKLARLTKEERLKKLCELYAKVLGSLEALEPVHYEEKNWCEEQYSGGCYTTYFPPGILTQYGRVLRQPVDRIYFAGTEAATHWSGYMEGAVEAGERAAREILHAMGKIPEDEIWQSEPESVDVPAQPITTTFLERHLPSVPGLLRLIGLTTIFSATALGFLAHKRGLLVRV | 10.2+2.07 pmol MAO B/mg protein | 46.2 + 19.1 min^−1 | 18.6 | 0.374 + 0.06 nmol/min · mg protein | 14.3 + 2.6 min^−1 | 11.1 | 0.161 + 0.039 nmol/min · mg protein |  |  |  |  |  | approximately equal to wild-type | 44 | ~50 % of wild-type |
